Data set [1] concerns the target APE1 (WT) (Homo sapiens, UniProt P27695 1-318). The experiment in a line: fluorescence anisotropy; 0 Mg2+, EDTA, 50 mM K+; 20 mM Tris pH 7.4, 50 mM KOAc (or 140 mM K+ / 50 mM Li+), 0, 1 or 10 mM Mg(OAc)2, 1 mM DTT, 22 °C, 100 nM FAM-DNA, APE1 0-5000 nM. The conditions noted are these: protein: recombinant; tags: His (pET28HIS-hAPE1, Addgene 70757); label: 5' FAM; intramolecular parallel G4 in K+; unfolded in Li+. (Polarisation of emitted light reports the rotation of a fluorescent probe.)

Data set [2] addresses Δ33-D210A-APE1 (Homo sapiens, UniProt P27695 34-318, D210A;del1-33). Kind of data set: fluorescence anisotropy; 10 mM Mg2+, 50 mM K+; 20 mM Tris pH 7.4, 50 mM KOAc (or 140 mM K+ / 50 mM Li+), 0, 1 or 10 mM Mg(OAc)2, 1 mM DTT, 22 °C, 100 nM FAM-DNA, APE1 0-5000 nM. The conditions noted are these: protein: recombinant; tags: His (pET28HIS-hAPE1); label: 5' FAM; intramolecular parallel G4 in K+; unfolded in Li+.

The target in data set [3] is T1, D210A-APE1 (Homo sapiens, UniProt P27695 1-318, D210A). The data set is described as above. The conditions noted are these: protein: recombinant; tags: His (pET28HIS-hAPE1); label: 5' FAM; intramolecular parallel G4 in K+; unfolded in Li+.
For data set [4], the target named is T1, D210A-APE1. Kind of data set: fluorescence anisotropy; 140 mM K+; 20 mM Tris pH 7.4, 50 mM KOAc (or 140 mM K+ / 50 mM Li+), 0, 1 or 10 mM Mg(OAc)2, 1 mM DTT, 22 °C, 100 nM FAM-DNA, APE1 0-5000 nM. The following applies: protein: recombinant; tags: His (pET28HIS-hAPE1); label: 5' FAM; intramolecular parallel G4 in K+; unfolded in Li+.

This passage reports Kd results from paper doi:10.1101/2021.08.25.457676, “Binding of AP endonuclease-1 to G-quadruplex DNA depends on the N-terminal domain, Mg2+ and ionic strength”.

The Kd is the constant that tells how readily two partners part at equilibrium.

T1 sequence (P27695 whole entry D210A): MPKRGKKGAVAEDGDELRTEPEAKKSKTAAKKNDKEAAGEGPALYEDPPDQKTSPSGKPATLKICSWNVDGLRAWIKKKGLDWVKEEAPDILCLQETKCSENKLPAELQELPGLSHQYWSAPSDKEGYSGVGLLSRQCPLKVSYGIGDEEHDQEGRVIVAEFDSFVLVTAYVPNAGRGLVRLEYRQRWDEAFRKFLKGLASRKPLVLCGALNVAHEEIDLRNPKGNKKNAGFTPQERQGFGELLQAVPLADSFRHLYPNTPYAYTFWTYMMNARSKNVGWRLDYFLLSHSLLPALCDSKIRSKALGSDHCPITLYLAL
Sequence of APE1 (WT) (P27695 whole entry): as the sequence (P27695 whole entry D210A) above, with A210D counted along it
Sequence of Δ33-D210A-APE1 (P27695 34-318 D210A): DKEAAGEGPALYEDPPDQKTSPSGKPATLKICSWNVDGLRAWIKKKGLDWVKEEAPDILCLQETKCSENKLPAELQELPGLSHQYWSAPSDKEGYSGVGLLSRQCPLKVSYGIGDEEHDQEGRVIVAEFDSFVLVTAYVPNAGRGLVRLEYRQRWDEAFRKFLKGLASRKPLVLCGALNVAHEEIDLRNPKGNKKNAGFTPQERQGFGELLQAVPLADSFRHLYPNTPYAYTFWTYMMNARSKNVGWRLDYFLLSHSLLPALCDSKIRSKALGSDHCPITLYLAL

In the case of CGGGGCGGGCCGGGGGCGGGGT (structured_DNA) [VEGF-4], the Kd in data set [1] amounted to 190 ± 50 nM; in data set [2] it was 230 ± 40 nM; in data set [3], 55 ± 4 nM; in data set [4], 20 nM.
